According to patent US20220220215A1 (CRESCENDO BIOLOGICS, published 2022):
Numbering of substitutions follows the chain as printed. Names may count otherwise. Values belong to the binder of their own block, whether it stands above or below them.

Experiments:
[1] = molecular target: T1, human PD-1 expressed on CHO cells (human, UniProt Q15116 21-288); assay: FMAT/Mirrorball on CHO huPD1 cells
T1 construct: also called CHO huPD1; CHO human PD1 cells
Experimental: (§1) Binding of His-tagged molecules to CHO human CD137, CHO parent and CHO human PD1 cells was assessed using Fluorescence Microvolume Assay Technology (FMAT). All reagents were prepared in FMAT assay buffer (pH 7.4) containing PBS, 0.1% Bovine Serum Albumin, 0.05% Sodium Azide. […] Fluorescence emission was then measured on the TTP Mirrorball plate reader in the FL2 (502 nm-537 nm) and FL5 (677-800 nm) channels following excitation at 488 nm and 640 nm. Data was gated on FL5 perimeter and peak intensity and the FL2 median mean fluorescence intensity of the gated data used for determination of VH binding. Monovalent CD137 specific Humabody® VH, and trispecific molecules with a CD137 binding arm bound to CHO CD137 expressing cells. Trispecific Humabody® VH, with a PD1 binding arm bound to PD1 expressing cells.

[2] = molecular target: T2, human CD137 expressed on CHO cells (human, UniProt Q07011 18-255); assay: FMAT/Mirrorball on CHO huCD137 cells
T2 construct: also called CHO huCD137; CHO human CD137 cells
Experimental: as §1

EC50 [1]: 264 pM
EC50 [2]: 314 pM
B1: TPP-984: CD137D -6GS-HSA2-6GS-PDA-His (bispecific antibody)
chain: EVQLVESGGGVVQPGGSLRLSCAASGFTFSNYGMHWVRQAPGKGLEWVAVISNDGNTKTYADSVKGRFTISRDNSKNTLYLQMNSLRAEDTAVYYCAQDETTTVTASYYFDYWGQGTLVTVSSGGGGSGGGGSGGGGSGGGGSGGGGSGGGGSEVQLVESGGGLVKPGGSLRLSCAASGFTFSNYNMNWVRQAPGKGLEWVSSISSAGTHIYYADSVKGRFTISRDNAKNSLYLQMNSLRAEDTAVYYCARDPHSTGWYKDFDYWGQGTLVTVSSGGGGSGGGGSGGGGSGGGGSGGGGSGGGGSEVQLVESGGGLVQPGRSLRLSCAASGFTFDDYALHWVRQAPGKDLEWVSGISWNGGSYGYADSVKGRFTISRDNAKNSLYLQMNSLRAEDTALYYCVREKGPGLTGSTADYYGLDAWGQGTMVTVSSAAAHHHHHH
notes: Single-chain VH fusion (CD137 VH, HSA VH, PD-1 VH), His tag

EC50 [1]: 240 pM
EC50 [2]: 44.3 pM
B2: TPP-983: CD137A -6GS-HSA2-6GS-PDA2-His (bispecific antibody)
chain: EVQLVESGGGLVQPGGSLRLSCAASGFTLSNYWMNWVRQAPGKGLEWVANINQDGSERYYVDSVKGRFTISRDNAKNSLYLQMNSLRAEDTAVYYCARGGEGYGVDHYGLDVSGQGTTVTVSSGGGGSGGGGSGGGGSGGGGSGGGGSGGGGSEVQLVESGGGLVKPGGSLRLSCAASGFTFSNYNMNWVRQAPGKGLEWVSSISSAGTHIYYADSVKGRFTISRDNAKNSLYLQMNSLRAEDTAVYYCARDPHSTGWYKDFDYWGQGTLVTVSSGGGGSGGGGSGGGGSGGGGSGGGGSGGGGSEVQLVESGGGVVRPGGSLRLSCAASGFTFDDYAMSWVRQAPGKGLEWVSGITWNAGSTGYADSVKGRFTISRDNAKNSLYLQMNSLRAEDTALYYCVRDKYSYAWSYDDFDIWGQGTMVTVSSAAAHHHHHH
notes: as for B1

EC50 [1]: 332 pM
EC50 [2]: 89.6 pM
B3: TPP-982: CD137A -6GS-HSA2-6GS-PDA-His (bispecific antibody)
chain: EVQLVESGGGLVQPGGSLRLSCAASGFTLSNYWMNWVRQAPGKGLEWVANINQDGSERYYVDSVKGRFTISRDNAKNSLYLQMNSLRAEDTAVYYCARGGEGYGVDHYGLDVSGQGTTVTVSSGGGGSGGGGSGGGGSGGGGSGGGGSGGGGSEVQLVESGGGLVKPGGSLRLSCAASGFTFSNYNMNWVRQAPGKGLEWVSSISSAGTHIYYADSVKGRFTISRDNAKNSLYLQMNSLRAEDTAVYYCARDPHSTGWYKDFDYWGQGTLVTVSSGGGGSGGGGSGGGGSGGGGSGGGGSGGGGSEVQLVESGGGLVQPGRSLRLSCAASGFTFDDYALHWVRQAPGKDLEWVSGISWNGGSYGYADSVKGRFTISRDNAKNSLYLQMNSLRAEDTALYYCVREKGPGLTGSTADYYGLDAWGQGTMVTVSSAAAHHHHHH
notes: as for B1

EC50 [1]: 414 pM
EC50 [2]: 223 pM
B4: TPP-971: PDA2-6GS-HSA2-6GS-172E1-13-His (bispecific antibody)
chain: EVQLVESGGGVVRPGGSLRLSCAASGFTFDDYAMSWVRQAPGKGLEWVSGITWNAGSTGYADSVKGRFTISRDNAKNSLYLQMNSLRAEDTALYYCVRDKYSYAWSYDDFDIWGQGTMVTVSSGGGGSGGGGSGGGGSGGGGSGGGGSGGGGSEVQLVESGGGLVKPGGSLRLSCAASGFTFSNYNMNWVRQAPGKGLEWVSSISSAGTHIYYADSVKGRFTISRDNAKNSLYLQMNSLRAEDTAVYYCARDPHSTGWYKDFDYWGQGTLVTVSSGGGGSGGGGSGGGGSGGGGSGGGGSGGGGSEVQLVESGGGVVQPGGSLRLSCAASGFTFSNYGMHWVRQAPGKGLEWVAVISNDGNTKTYADSVKGRFTISRDNSKNTLYLQMNSLRAEDTAVYYCAQDETTTVTASYYFDYWGQGTLVTVSSAAAHHHHHH
notes: Single-chain VH fusion (PD-1 VH, HSA VH, CD137 VH), His tag

EC50 [1]: 792 pM
EC50 [2]: 390 pM
B5: TPP-975: CD137D-6GS-PDA2-6GS-HSA2-His (bispecific antibody)
chain: EVQLVESGGGVVQPGGSLRLSCAASGFTFSNYGMHWVRQAPGKGLEWVAVISNDGNTKTYADSVKGRFTISRDNSKNTLYLQMNSLRAEDTAVYYCAQDETTTVTASYYFDYWGQGTLVTVSSGGGGSGGGGSGGGGSGGGGSGGGGSGGGGSEVQLVESGGGVVRPGGSLRLSCAASGFTFDDYAMSWVRQAPGKGLEWVSGITWNAGSTGYADSVKGRFTISRDNAKNSLYLQMNSLRAEDTALYYCVRDKYSYAWSYDDFDIWGQGTMVTVSSGGGGSGGGGSGGGGSGGGGSGGGGSGGGGSEVQLVESGGGLVKPGGSLRLSCAASGFTFSNYNMNWVRQAPGKGLEWVSSISSAGTHIYYADSVKGRFTISRDNAKNSLYLQMNSLRAEDTAVYYCARDPHSTGWYKDFDYWGQGTLVTVSSAAAHHHHHH
notes: Single-chain VH fusion (CD137 VH, PD-1 VH, HSA VH), His tag

EC50 [1]: 144 pM
EC50 [2]: 207 pM
B6: TPP-943: PDA-6GS-172E1-13-6GS-HSA2-His (bispecific antibody)
chain: EVQLVESGGGLVQPGRSLRLSCAASGFTFDDYALHWVRQAPGKDLEWVSGISWNGGSYGYADSVKGRFTISRDNAKNSLYLQMNSLRAEDTALYYCVREKGPGLTGSTADYYGLDAWGQGTMVTVSSGGGGSGGGGSGGGGSGGGGSGGGGSGGGGSEVQLVESGGGVVQPGGSLRLSCAASGFTFSNYGMHWVRQAPGKGLEWVAVISNDGNTKTYADSVKGRFTISRDNSKNTLYLQMNSLRAEDTAVYYCAQDETTTVTASYYFDYWGQGTLVTVSSGGGGSGGGGSGGGGSGGGGSGGGGSGGGGSEVQLLESGGGLVKPGGSLRLSCAASGFTVSSYTMNWVRQAPGKGLEWVSSISSSGRYIYYADSVKGRFTISRDNAKNSLYLQMNSLRAEDTAVYYCARDPRMVGNPHEFDIWGQGTMVTVSSAAAHHHHHH
notes: Single-chain VH fusion

EC50 [1]: 805 pM
EC50 [2]: 419 pM
B7: TPP-951: PDA2-6GS-172E1-13-6GS-HSA3-His (bispecific antibody)
chain: EVQLVESGGGVVRPGGSLRLSCAASGFTFDDYAMSWVRQAPGKGLEWVSGITWNAGSTGYADSVKGRFTISRDNAKNSLYLQMNSLRAEDTALYYCVRDKYSYAWSYDDFDIWGQGTMVTVSSGGGGSGGGGSGGGGSGGGGSGGGGSGGGGSEVQLVESGGGVVQPGGSLRLSCAASGFTFSNYGMHWVRQAPGKGLEWVAVISNDGNTKTYADSVKGRFTISRDNSKNTLYLQMNSLRAEDTAVYYCAQDETTTVTASYYFDYWGQGTLVTVSSGGGGSGGGGSGGGGSGGGGSGGGGSGGGGSEVQLLESGGGLVKPGGSLRLSCAASGFTVSSYTMNWVRQAPGKGLEWVSSISSSGRYIYYADSVKGRFTISRDNAKNSLYLQMNSLRAEDTAVYYCARDPRMVGNPHEFDIWGQGTMVTVSSAAAHHHHHH
notes: Single-chain VH fusion (PD-1 VH, CD137 VH, HSA VH), His tag

EC50 [1]: 346 pM
EC50 [2]: 499 pM
B8: TPP-958: PD138G7(G109D)-6GS-172E1-13-6GS-HSA3-His (bispecific antibody)
chain: B7 chain with A55G, G66D
notes: as for B7

EC50 [1]: 844 pM
EC50 [2]: 735 pM
B9: TPP-950: PDA2-6GS-172E1-13-6GS-HSA2-His (bispecific antibody)
chain: EVQLVESGGGVVRPGGSLRLSCAASGFTFDDYAMSWVRQAPGKGLEWVSGITWNAGSTGYADSVKGRFTISRDNAKNSLYLQMNSLRAEDTALYYCVRDKYSYAWSYDDFDIWGQGTMVTVSSGGGGSGGGGSGGGGSGGGGSGGGGSGGGGSEVQLVESGGGVVQPGGSLRLSCAASGFTFSNYGMHWVRQAPGKGLEWVAVISNDGNTKTYADSVKGRFTISRDNSKNTLYLQMNSLRAEDTAVYYCAQDETTTVTASYYFDYWGQGTLVTVSSGGGGSGGGGSGGGGSGGGGSGGGGSGGGGSEVQLVESGGGLVKPGGSLRLSCAASGFTFSNYNMNWVRQAPGKGLEWVSSISSAGTHIYYADSVKGRFTISRDNAKNSLYLQMNSLRAEDTAVYYCARDPHSTGWYKDFDYWGQGTLVTVSSAAAHHHHHH
notes: as for B7

EC50 [1]: 766 pM
EC50 [2]: 1170 pM
B10: TPP-957; PD138G7(G109D)-6GS-172E1-13-6GS-HSA2-His (bispecific antibody)
chain: B9 chain with A55G, G66D
notes: as for B7
